Data reported in publication doi:10.1101/2025.07.29.667540.
pKd: −log10 of the molar value.

Tests used:
CyPet-Ubc9 = CyPet-Ubc9 (UniProt P63279); assay: FRET or BRET
[1] = target: CyPet-NS1 (influenza A virus) (UniProt P03496); assay: FRET or BRET
Sequence of UniProt P03496 (P03496 whole entry): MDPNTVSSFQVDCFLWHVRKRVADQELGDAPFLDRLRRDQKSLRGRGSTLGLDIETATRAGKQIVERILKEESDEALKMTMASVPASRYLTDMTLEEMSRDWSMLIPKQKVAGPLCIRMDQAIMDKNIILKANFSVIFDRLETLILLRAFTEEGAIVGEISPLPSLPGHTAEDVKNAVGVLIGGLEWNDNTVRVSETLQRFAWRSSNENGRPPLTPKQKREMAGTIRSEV

Sequence of UniProt P63279 (P63279 whole entry): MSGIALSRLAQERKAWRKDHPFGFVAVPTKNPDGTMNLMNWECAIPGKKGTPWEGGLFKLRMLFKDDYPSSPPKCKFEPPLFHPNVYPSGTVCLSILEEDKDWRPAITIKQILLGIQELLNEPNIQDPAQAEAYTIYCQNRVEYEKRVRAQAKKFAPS

| Substance | pKd (CyPet-Ubc9) | pKd [1] |
| --- | --- | --- |
| YPet-NS1 (from UniProt P03496 1-230) (natural protein) | 5.32 |  |
| YPet-PIAS1 (from UniProt O75925 1-651) (enzyme) |  | 5.53 |
